Positions count from the first letter of the chain named. Where only a bound is given, the exact number is not on record here.

Data on eleven molecules can be found in patent US20150057436A1 (ARGEN X, published 2015).

In assay [1] the target is T1, human IL-1 Beta (human, UniProt P01584 117-269, biotinylated in the Fab, phage and competition ELISAs).
T1 construct: also called biot-IL-1 Beta; biotinylated IL-1 Beta
The assay can be described thus: ELISA based competition assay; competitor: antagonistic reference mouse mAb.
Target sequence in this assay (P01584 117-269 limits assumed): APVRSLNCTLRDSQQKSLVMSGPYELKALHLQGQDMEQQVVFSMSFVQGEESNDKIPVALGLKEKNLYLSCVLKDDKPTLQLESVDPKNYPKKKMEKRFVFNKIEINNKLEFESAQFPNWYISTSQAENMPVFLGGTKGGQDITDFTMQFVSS

Assay [2] has as its target T1, human IL-1 Beta. Put plainly: cell-based or functional assay.
Target sequence in this assay (P01584 117-269 limits assumed): as above
Assay [3] has as its target T1, human IL-1 Beta. The assay can be described thus: competition ELISA, periplasmic Fab extract; competitor: coated blocking mouse mAb; OD of biot-IL-1 Beta bound. (In general: An ELISA detects its analyte on a solid surface through an enzyme-linked reagent.)
Target sequence in this assay (P01584 117-269 limits assumed): as above
The target in assay [4] is T1, human IL-1 Beta. The assay can be described thus: ELISA: Fab captured on anti-myc plate, biot-IL-1 Beta, streptavidin-HRP. The procedure:
For this the Fabs were captured on an anti-myc coated Maxisorp plate. Biotinylated human IL-1 Beta was added and bound cytokine was detected using HRP-conjugated streptavidin.
The genes of these Fabs were ordered as synthetic genes with GeneArt (Germany) and were subsequently produced in E. coli, purified and tested for their ability to bind biot-IL-1 Beta. For this the Fabs were captured on an anti-myc coated Maxisorp plate. Biotinylated human IL-1 Beta was added and bound cytokine was detected using HRP-conjugated streptavidin. The read out of this assay is represented in FIG. 3 below. [0459] […] [0460] Partial (wt Vλ/safe VH) and complete (wt Vλ/hum VH) humanization of the VH domain of 1E2 generated a functional Fab.

A further assay addresses T2, neutravidin (UniProt P02701 25-152).
T2 construct: Capture protein of the phage ELISA, tested alone as the negative control
Put plainly: phage ELISA on neutravidin coated wells, crude phage extract, anti-M13-HRP. The procedure: (§1) The humanized variants of clone 1F2 were tested with phage expressing gene3-Fabs fusions (FIG. 4). Phage were produced from 4 independent clones for each construct: [0462] wt 1F2 and wt 1E2 (llama Vλ and VH fused to human CA and CH1) [0463] safe variant 1F2 and safe variant 1E2 (partially humanized Vλ fused to human CA and CH1) [0464] hum 1F2 and hum 1E2 (fully humanized Vλ and VH fused to human CA and CH1)
(§2) Four clones for each Fab were tested to overcome clonal variation (due to bacterial growth, phage production efficiency and toxicity etc. . . . ). Phage ELISA was performed by capturing of biotinylated IL-1 Beta on neutravidin coated Maxisorp plate and subsequent incubation of crude phage extract (i.e. bacterial medium). After extensive washing, bound phages were detected with an anti-M13-HRP monoclonal antibody. […] [0466] Back mutations in the framework regions of 1F2 VL and VH domains to the closest human germline successfully yield partially (safe) and fully (hum) humanized variants, maintaining antigen specificity. Successful Formatting of Camelid Variable Domains with Human Constant Domains

For assay [5], the target named is T1, human IL-1 Beta. Put plainly: phage ELISA: biot-IL-1 Beta captured on neutravidin, crude phage, anti-M13-HRP. The procedure: as §1, §2

T2 sequence (P02701 25-152): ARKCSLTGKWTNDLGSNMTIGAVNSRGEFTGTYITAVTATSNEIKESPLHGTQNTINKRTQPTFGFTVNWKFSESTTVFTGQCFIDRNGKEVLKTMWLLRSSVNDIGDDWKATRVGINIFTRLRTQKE

B1: Fab 1A1 (Fab, part only; not given: lambda light chain, V domains shown, not shown: a dimerising Fc or GST)
VH: EVQLVESGGGLVQPGGSLRLSCAASGFTFDDYAMSWVRQAPGKGLEWVSTISWNGGATYYAESMKGRFTISRDNAKNTLYLQMNSLKSEDTAVYYCAKPYYSDYVGVEYDYWGQGTQVTVSS
In the assay with human IL-1 Beta [1], B1 returned an IC50 of 12 µg/mL. This molecule gave an IC50 in the bioassay with human IL-1 Beta [2] of 10 µg/mL. In the assay with human IL-1 Beta [3], this molecule registered an OD of 0.205 OD.

B2: Fab 1B3 (Fab, part only; not given: lambda light chain, V domains shown, not shown: a dimerising Fc or GST)
VH: EVQLVQSGAELRNPGASVKVSCKASGYTFTSYYIDWVRQAPGQGLEWMGRIDPEDGGTKYAQKFQGRVTFTADTSTSTAYVELSSLRSEDTAVYYCARSGRYELDYWGQGTQVTVSS
Consider B2, for which, in the assay with human IL-1 Beta [3], the OD came to 0.444 OD.

B3: Fab 1G1 (Fab, part only; not given: lambda light chain, V domains shown, not shown: a dimerising Fc or GST)
VH: B2 VH with I34T, G57D, S84T, A97L, R101A
For the molecule B3, the OD in the assay with human IL-1 Beta [3] was 0.498 OD.

B4: wild type llama 1E2 Fab (Fab, V domains shown)
VH: EVQLVESGGGLVQPGGSLRLSCTASGFTFSNYWMYWVRQAPGKGLEWVSAINAAGSTYYADSVKGRFTISRDNAKNTLYLQMNSLQSEDTALYYCANLPRWGQGTQVTVSS
VL: QTVVTQEPSLSVSPGGTVTLTCGLSSGSVTSGNYPGWYQQKPGQAPRTLIYNTNSRYSGVPNRFSGSISGNKAALTITGAQPEDEADYYCAVYIGSSSYPVVFGGGTHLTVL
notes: Llama variable and llama constant domains, produced from pCB3; captured through its myc tag; also called Fab 1E2
As for B4, the binding result in the assay with human IL-1 Beta [4] was “binds”.

B5: chimeric 1E2 Fab (llama Vλ and VH fused to human Cλ and CH1) (Fab, V domains shown)
VH: B4 VH
VL: B4 VL
notes: VH fused to human CH1, Vλ fused to human Cλ; produced in E. coli from pCB5; myc tag; also called wt 1E2
Consider B5, for which the binding result with human IL-1 Beta [4] is given as “binds”.

B6: wt 1E2 (llama Vλ and VH fused to human Cλ and CH1), phage expressing gene3-Fab fusion (Fab, V domains shown)
VH: B4 VH
VL: B4 VL
Take B6: the binding result with neutravidin is reported as “no binding”.

B7: hum 1E2 (fully humanized Vλ and VH fused to human Cλ and CH1), phage expressing gene3-Fab fusion (Fab, V domains shown)
VH: B4 VH with T23A, A74S, Q86R, S87A, L92V, Q106L
VL: B4 VL with L10F, K41T, Y57S, N62D, S69L, P82A, E83D, A86S, H108K
For the molecule B7, the binding result in the assay with neutravidin was “no binding”.

B8: 1E2 Fab wt Vλ/hum VH (Fab, V domains shown)
VH: B4 VH with T23A, A74S, Q86R, S87A, L92V, Q106L
VL: B4 VL
notes: also called wt/hum
Consider B8, for which the binding result with human IL-1 Beta [4] is listed as “binds”.

B9: 1E2 Fab wt Vλ/safe VH (Fab, V domains shown)
VH: B4 VH with T23A, A74S, L92V
VL: B4 VL
notes: also called wt/safe
Turning to B9, the binding result with human IL-1 Beta [4] was “binds”.

B10: Fab 1C3 (Fab, part only; not given: lambda light chain, V domains shown, not shown: a dimerising Fc or GST)
VH: EVQLVESGGGLVQPGGSLRLSCAASGFTFSSYWMYWVRQAPGKGLEWVSAINTGGGRTYYADSVKGRFTISRDNAKNTLYLQMNSLKSEDTAVYYCAKGTSADGSSWYVPADPYDYWGQGTQVTVSS
For the molecule B10, the concentration at which competition is seen in the assay with human IL-1 Beta [1] is above 50 µg/mL. In addition, the IC50 in the bioassay in the assay with human IL-1 Beta [2] is 3 µg/mL. This molecule also showed an OD with human IL-1 Beta [3] of 0.386 OD.

B11: hum 1F2 (fully humanized Vλ and VH fused to human Cλ and CH1), phage expressing gene3-Fab fusion (Fab, V domains shown)
VH: EVQLLESGGGLVQPGGSLRLSCAASGFTFSTYAMSWVRQAPGKGLEWVSGINTGGGSTGYADSVKGRFTISRDNSKNTLYLQMNSLRAEDTAVYYCAKDWMATTPWGQGTLVTVSS
VL: QTVVTQEPSFSVSPGGTVTLTCGLSSGSVTTNNYPGWYQQTPGQAPRTLIYNTNNRSSGVPDRFSGSILGNKAALTITGAQADDESDYYCALYMSSGSNNAVFGGGTKLTVL
notes: also called fully (hum) humanized 1F2
B11: the binding result in the assay with human IL-1 Beta [5] is recorded as “binds”; in the assay with neutravidin, “no binding”.

In general, IC50 refers to the point on the concentration scale where inhibition reaches its midpoint.
